According to FireProtDB (doi:10.1016/0022-2836(92)90562-x):

Settings: Bacillus amyloliquefaciens; pH 6.3; 25 °C; Urea; Fluorescence; MES-NaOH 450 mM; reversible: yes; whole UniProt chain shown

B1: Ribonuclease wild type, P00648 (protein)
chain: MMKMEGIALKKRLSWISVCLLVLVSAAGMLFSTAAKTETSSHKAHTEAQVINTFDGVADYLQTYHKLPDNYITKSEAQALGWVASKGNLADVAPGKSIGGDIFSNREGKLPGKSGRTWREADINYTSGFRNSDRILYSSDWLIYKTTDHYQTFTKIR
For B1, which denaturant m value is on record?
Its denaturant m value is 1.93 kcal/mol/M.

And the “denaturant midpoint (higher = more stable)” value?
Its value is 4.57 M.

And the unfolding free energy?
Its unfolding free energy is 8.82 kcal/mol.
